Measured values as given in PMC10618255, “Cryo-EM structure of human O-GlcNAcylation enzyme pair OGT-OGA complex” (Nature Communications, 2023).

B1: full-length human OGT (O-GlcNAc transferase), C-terminal His6 (enzyme, UniProt O15294 1-1046, looked up)
chain: MASSVGNVADSTEPTKRMLSFQGLAELAHREYQAGDFEAAERHCMQLWRQEPDNTGVLLLLSSIHFQCRRLDRSAHFSTLAIKQNPLLAEAYSNLGNVYKERGQLQEAIEHYRHALRLKPDFIDGYINLAAALVAAGDMEGAVQAYVSALQYNPDLYCVRSDLGNLLKALGRLEEAKACYLKAIETQPNFAVAWSNLGCVFNAQGEIWLAIHHFEKAVTLDPNFLDAYINLGNVLKEARIFDRAVAAYLRALSLSPNHAVVHGNLACVYYEQGLIDLAIDTYRRAIELQPHFPDAYCNLANALKEKGSVAEAEDCYNTALRLCPTHADSLNNLANIKREQGNIEEAVRLYRKALEVFPEFAAAHSNLASVLQQQGKLQEALMHYKEAIRISPTFADAYSNMGNTLKEMQDVQGALQCYTRAIQINPAFADAHSNLASIHKDSGNIPEAIASYRTALKLKPDFPDAYCNLAHCLQIVCDWTDYDERMKKLVSIVADQLEKNRLPSVHPHHSMLYPLSHGFRKAIAERHGNLCLDKINVLHKPPYEHPKDLKLSDGRLRVGYVSSDFGNHPTSHLMQSIPGMHNPDKFEVFCYALSPDDGTNFRVKVMAEANHFIDLSQIPCNGKAADRIHQDGIHILVNMNGYTKGARNELFALRPAPIQAMWLGYPGTSGALFMDYIITDQETSPAEVAEQYSEKLAYMPHTFFIGDHANMFPHLKKKAVIDFKSNGHIYDNRIVLNGIDLKAFLDSLPDVKIVKMKCPDGGDNADSSNTALNMPVIPMNTIAEAVIEMINRGQIQITINGFSISNGLATTQINNKAATGEEVPRTIIVTTRSQYGLPEDAIVYCNFNQLYKIDPSTLQMWANILKRVPNSVLWLLRFPAVGEPNIQQYAQNMGLPQNRIIFSPVAPKEEHVRRGQLADVCLDTPLCNGHTTGMDVLWAGTPMVTMPGETLASRVAASQLTCLGCLELIAKNRQEYEDIAVKLGTDLEYLKKVRGKVWKQRISSPLFNTKQYTMELERLYLQMWEHYAAGNKPDHMIKPVEVTESA
notes: human O-GlcNAc transferase (OGT), full length, UniProt O15294; Scissor-shaped homodimer by cryo-EM; also called OGT WT; His6-tagged OGT; source: E. coli BL21 (DE3), purified (Ni-NTA, Resource Q, Superose 6); for the OGT-OGA complex co-expressed with OGA in BL21 (DE3); not shown: His6, C-terminal, kept
B2: GST-OGA (residues 371-440) (domain or fragment, human, UniProt O60502 371-440, looked up)
chain: DVLYSPQMALKLALTEWLQEFGVPHQYSSRQVAHSGAKASVVDGTPLVAAPSLNATTVVTTVYQEPIMSQ
notes: human OGA, residues 371-440, UniProt O60502, cloned into pGEX-6P-1; also called GST-OGA fragment; source: E. coli BL21 (DE3), purified (Glutathione Sepharose 4B, Resource Q, Superose 6)

Key:
[1] = O-GlcNAc at S405
[2] = target: the molecule itself; experiment: cryo-EM structure; single-particle cryo-EM of full-length human OGT alone, incubated with 1 mg/ml UDP-GlcNAc on ice; overall resolution 3.69 Å
[3] = target: B1; experiment: pull-down; GST pull-down: GST-OGA bait on Glutathione Sepharose 4B, His6-tagged OGT or mutants as prey; all proteins 1 mg/ml; 25 mM Tris pH 8.0, 150 mM NaCl, 2 mM DTT, 0.05% NP40; 2 h at 4 °C; SDS-PAGE with Coomassie staining; settings: both partners purified

OGA (O-GlcNAcase): OGT H508A mutant bound to OGA
enzymatic_activity [1]: no change

B1
stoichiometry N [2]: 2

B2
binding result [3]: binds
